Four molecules from US20200055939A1 (Genentech, published 2020) can be followed below.

Experiment in all cases: SPR, Fab over captured MICA*008.mIgG2a Ala variant; KD relative to wild type
For experiment [1], the target named is T1, Y283A.
T1 construct: % monomer 92.7; also called MICA*008.mIgG2a Y283A
T1 chain: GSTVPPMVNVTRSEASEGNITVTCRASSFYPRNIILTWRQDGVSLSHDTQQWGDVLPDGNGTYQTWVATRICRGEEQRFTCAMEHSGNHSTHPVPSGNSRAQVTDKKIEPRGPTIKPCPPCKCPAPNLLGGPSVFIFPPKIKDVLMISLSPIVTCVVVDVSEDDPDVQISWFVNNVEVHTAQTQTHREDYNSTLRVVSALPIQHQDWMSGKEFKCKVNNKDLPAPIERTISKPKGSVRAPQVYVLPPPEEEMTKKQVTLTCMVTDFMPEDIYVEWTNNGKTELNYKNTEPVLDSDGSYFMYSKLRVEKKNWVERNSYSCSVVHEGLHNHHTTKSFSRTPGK

Experiment [2] has as its target T2, R240A.
T2 construct: % monomer 93.8; also called MICA*008.mIgG2a R240A
T2 chain: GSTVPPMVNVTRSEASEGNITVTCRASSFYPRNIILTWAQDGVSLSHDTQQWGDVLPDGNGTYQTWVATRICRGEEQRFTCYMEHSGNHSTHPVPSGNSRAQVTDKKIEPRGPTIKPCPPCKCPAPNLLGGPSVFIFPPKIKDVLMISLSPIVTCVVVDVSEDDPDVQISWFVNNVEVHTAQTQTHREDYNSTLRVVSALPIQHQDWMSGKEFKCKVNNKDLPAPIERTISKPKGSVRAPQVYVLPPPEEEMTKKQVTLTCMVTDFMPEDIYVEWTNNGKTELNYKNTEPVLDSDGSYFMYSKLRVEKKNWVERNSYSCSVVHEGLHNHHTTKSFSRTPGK

Experiment [3] addresses T3, G275A.
T3 construct: % monomer 98.9; also called MICA*008.mIgG2a G275A
T3 chain: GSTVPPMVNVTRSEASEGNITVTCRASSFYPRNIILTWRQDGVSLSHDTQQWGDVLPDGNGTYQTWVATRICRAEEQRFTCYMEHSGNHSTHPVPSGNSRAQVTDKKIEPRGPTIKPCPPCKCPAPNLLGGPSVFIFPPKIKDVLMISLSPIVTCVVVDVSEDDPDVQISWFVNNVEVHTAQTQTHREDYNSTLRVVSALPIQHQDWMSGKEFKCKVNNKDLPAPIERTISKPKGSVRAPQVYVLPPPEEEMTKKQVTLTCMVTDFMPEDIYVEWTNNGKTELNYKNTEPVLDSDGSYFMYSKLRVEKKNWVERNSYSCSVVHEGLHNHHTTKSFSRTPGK

The target of experiment [4] is T4, R274A.
T4 construct: % monomer 94; also called MICA*008.mIgG2a R274A
T4 chain: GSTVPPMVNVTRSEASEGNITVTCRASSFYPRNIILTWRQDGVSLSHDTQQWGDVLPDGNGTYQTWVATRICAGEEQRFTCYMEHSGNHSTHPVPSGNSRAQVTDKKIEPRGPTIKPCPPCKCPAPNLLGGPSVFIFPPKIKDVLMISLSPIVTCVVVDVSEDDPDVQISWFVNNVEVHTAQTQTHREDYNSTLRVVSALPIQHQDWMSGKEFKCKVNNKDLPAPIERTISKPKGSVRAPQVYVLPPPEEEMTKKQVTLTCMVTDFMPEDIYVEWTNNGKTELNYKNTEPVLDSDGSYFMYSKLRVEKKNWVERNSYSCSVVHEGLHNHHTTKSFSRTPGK

The target of experiment [5] is T5, V244A.
T5 construct: % monomer 97.6; also called MICA*008.mIgG2a V244A
T5 chain: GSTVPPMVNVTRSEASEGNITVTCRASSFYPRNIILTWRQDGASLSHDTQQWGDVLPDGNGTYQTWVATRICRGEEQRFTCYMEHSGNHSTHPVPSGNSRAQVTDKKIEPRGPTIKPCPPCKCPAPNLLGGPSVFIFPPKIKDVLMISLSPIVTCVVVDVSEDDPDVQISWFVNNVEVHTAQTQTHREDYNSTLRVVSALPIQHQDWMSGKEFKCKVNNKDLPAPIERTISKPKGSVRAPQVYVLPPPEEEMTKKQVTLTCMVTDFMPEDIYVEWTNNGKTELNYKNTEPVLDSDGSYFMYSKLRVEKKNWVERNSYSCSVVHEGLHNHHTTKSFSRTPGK

Experiment [6] concerns the target T6, S287A.
T6 construct: % monomer 90.34; also called MICA*008.mIgG2a S287A
T6 chain: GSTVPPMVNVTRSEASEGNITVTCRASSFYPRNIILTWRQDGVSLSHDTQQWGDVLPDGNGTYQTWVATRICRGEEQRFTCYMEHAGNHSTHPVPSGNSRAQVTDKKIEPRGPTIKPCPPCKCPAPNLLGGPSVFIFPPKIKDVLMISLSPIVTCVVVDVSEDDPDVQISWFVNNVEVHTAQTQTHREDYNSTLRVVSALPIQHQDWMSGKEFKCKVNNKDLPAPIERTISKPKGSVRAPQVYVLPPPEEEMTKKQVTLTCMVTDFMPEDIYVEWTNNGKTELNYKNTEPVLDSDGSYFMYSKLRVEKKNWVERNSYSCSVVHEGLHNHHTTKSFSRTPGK

B1: 2E5.2.3 Fab (Fab, V domains shown)
VH: QGQMQQSGAELVKPGASVKLSCKTSGFTFSDNYISWLKQKPGQSLEWIAWIYAGTGGTSYNQKFTAKAQLTVDTSSSTAYMQFSSLTTEDSAIYYCARHDYYGTSGAWFAYWGQGTLVTVSA
VL: DVLMTQTPLSLPVSLGDQASLSCRSSQNIVHINGNTYLEWYLQKPGQSPKLLIYKVSNRFSGVPDRFSGSGSGTDFTLKISRVEAEDLGVYYCFQGSHVPWTFGGGTKVEIK
In the case of B1, the fold-decrease in affinity in experiment [1] was found to be 0.2; in experiment [2] it was 1; in experiment [3], 1; in experiment [4] it was 1.1; in experiment [5], 1; in experiment [6] it was 1.

B2: 1D5 Fab (Fab, V domains shown)
VH: EIQLQQSGPELVKPGASVKVSCKASGYAFTSQNIYWVKQSHGKSLEWIGYIEPYNVVPMYNPKFKGKATLTVDKSSSSAYIHLNSLTSEDSAIYYCARSGSSNFDYWGQGTTLTVSS
VL: EIILTQSPTTMAASPGEKITITCSASSSISSHYLHWYQQKSGFSPKLLIYRTSNLASGVPARFSGSGSGTSYSLTIGTMEAEDVATYYCQQGSSLPLTFGAGTKVEIK
notes: Expressed in E. coli as chimera of murine variable and human constant domains; not shown: human IgG1 CH1 constant domain; human kappa CL constant domain
Turning to B2, the fold-decrease in affinity in experiment [6] was 4.9.

B3: 6F8.7 Fab (Fab, V domains shown)
VH: DVQLQGSGPGLVKPSQSLSLTCSVTGYSITNDYYWNWIRQFPGNKLEWMGFISFGGSNNYNPSLKNRISITRDTSKNQFFLKLSSVTTEDTATYYCARYDGRGAWFAYWAQGTLVTVSA
VL: DIQMTQSPASLSASVGETVTITCRASGNIHNYLAWYQQKQGKSPQLLVYDAITLADGVPSRFSGSGSGTQYSLKINSLQPEDFGNYYCQHFWSFPLTFGAGTKVEIK
As to B3, the fold-decrease in affinity in experiment [1] was determined as 1.7; in experiment [2], 4.5; in experiment [3], 4.6; in experiment [4], 1; in experiment [6], 1.1.

B4: 7D4.6 Fab (Fab, V domains shown)
VH: DVQLQESGPGLVKPSQSLSLTCTVTGYSITSDYAWNWIRQFPRNKLEWMGYINYSGTTNYNPSLKSRISITRDTSKNQFFLQLISVTTEDTATYYCSYYRYDGAWFPYWGQGTLVTVSA
VL: DIQMTQSPASLSASVGETVTITCRASGNIHNYLAWYQQKQGKSPQLLVYNAIMLADGVPSRFSASGSGTQYSLKINSLQPEDFGSYYCQHFWSFPLTFGAGTKVEIK
As to B4, the fold-decrease in affinity in experiment [4] came out at 0.9; in experiment [6], 1.3.
